The values that follow come from patent US20080249174A1, “Animal Model for Studying Atherosclerotic Lesions” (THE RESEARCH FOUNDATION OF STATE UNIVERSITY OF NEW YORK, priority 2005, published 2008).

Assay [1] has as its target mouse Sptlc2 (serine palmitoyl-CoA transferase subunit 2) (mouse) (UniProt P97363). The assay can be described thus: cell-based or functional assay.
Assay [2] concerns CIP.choline-phosphate cytidylyltransferase (CT). The note with it: administration of L-cycloserine; cited from earlier work.
Assay [3] concerns the target mouse Sptlc1 (serine palmitoyl-CoA transferase subunit 1) (mouse) (UniProt O35704). The experiment in a line: cell-based or functional assay.

“mouse Sptlc1 (serine palmitoyl-CoA transferase subunit 1) (from UniProt O35704 1-473) (enzyme)” had a decrease in Sptlc1 protein mass in Sptlc2+/- mouse liver against WT (Western blot of liver homogenate) in assay [1] of 70%.

Consider `N[C@@H]1CON=C1O` [L-cycloserine], for which, in assay [2], the “stimulation of CT activity” value was 74%.

Regarding “mouse Sptlc2 (serine palmitoyl-CoA transferase subunit 2) (from UniProt P97363 1-560) (enzyme)”, the decrease in Sptlc2 protein mass in Sptlc1+/- mouse liver against WT (Western blot of liver homogenate) in assay [3] was 53%.
